B1: Chimeric D (antibody, V domains shown)
VH: EVQLQQSGPELVKPGASMKISCKASGYSFTGYTMNWVKQSHGKNLEWIGLIIPYNGGISYNQKFKDKATLTVDKSSSTAYMELLSLTSEDSAVYYCASLITTAPRDSMDYWGQGTSVTVSS
VL: DIQMTQTTSSLSASLGDRVTISCRASQDISNYLNWYQQKPDGSVKLLIYYTSKLHSGVPSRFSGSGSGTDYSLTISNLEQEDIATYFCQQGDALPWTFGGGTKLEIK
notes: also called chimeric Clone D
B2: BhVH2/BhVL1 (antibody, V domains shown)
VH: QGQLVQSGAEVKKPGASVKVSCKTSGFTFSSSYISWVRQAPGQGLEWMGWIYAGTGGTSYNQKFTGRVTMTVDTSTSTAYMELRSLRSDDTAVYYCARHEGKYWYFDVWGQGTTVTVSS
VL: DIQMTQSPSSLSASVGDRVTITCSASSSVSYVHWYQQKPGKAPKPWIYDTSNLASGFPSRFSGSGSGTDYTLTISSLQPEDFATYYCHQRSSYPWTFGGGTKVEIK
notes: Humanized Clone B; VH and VL cloned into vectors carrying constant regions (CH1-FC/CL), expressed in 293F cells; also called humanized Clone B, Bh VH2 + Bh VL1
B3: BhVH2/BhVL8 (antibody, V domains shown)
VH: QGQLVQSGAEVKKPGASVKVSCKTSGFTFSSSYISWVRQAPGQGLEWMGWIYAGTGGTSYNQKFTGRVTMTVDTSTSTAYMELRSLRSDDTAVYYCARHEGKYWYFDVWGQGTTVTVSS
VL: EIVMTQSPATLSVSPGERATLSCSASSSVSYVHWYQQKPGQAPRPWIYDTSNLASGFPARFSGSGSGTEYTLTISSLQSEDAAVYYCHQRSSYPWTFGGGTKVEIK
notes: Humanized Clone B; constant regions (CH1-FC/CL) from the vector, expressed in 293F cells; also called humanized Clone B, Bh VH2 + Bh VL8
B4: BhVH5/BhVL8 (antibody, V domains shown)
VH: QGQLVQSGAEVKKPGSSVKVSCKTSGFTFSSSYISWVRQAPGQGLEWMGWIYAGTGGTSYNQKFTGRVTITVDTSTSTAYMELSSLRSEDTAVYYCARHEGKYWYFDVWGQGTTVTVSS
VL: EIVMTQSPATLSVSPGERATLSCSASSSVSYVHWYQQKPGQAPRPWIYDTSNLASGFPARFSGSGSGTEYTLTISSLQSEDAAVYYCHQRSSYPWTFGGGTKVEIK
notes: Humanized Clone B; constant regions (CH1-FC/CL) from the vector, expressed in 293F cells; also called humanized Clone B, Bh VH5 + Bh VL8
B5: BhVH3/BhVL3 (antibody, V domains shown)
VH: QVQLVQSGAEVKKPGASVKVSCKTSGFTFSSSYISWVRQAPGQGLEWMGWIYAGTGGTSYNQKFTGRVTMTVDTSTSTAYMELRSLRSDDTAVYYCARHEGKYWYFDVWGQGTTVTVSS
VL: DIQMTQSPSTLSASVGDRVTITCSASSSVSYVHWYQQKPGKAPKLLIYDTSNLASGVPSRFSGSGSGTEFTLTISSLQPDDFATYYCHQRSSYPWTFGGGTKVEIK
notes: Humanized Clone B; constant regions (CH1-FC/CL) from the vector, expressed in 293F cells; also called humanized Clone B, Bh VH3 + Bh VL3
B6: BhVH5/BhVL7 (antibody, V domains shown)
VH: QGQLVQSGAEVKKPGSSVKVSCKTSGFTFSSSYISWVRQAPGQGLEWMGWIYAGTGGTSYNQKFTGRVTITVDTSTSTAYMELSSLRSEDTAVYYCARHEGKYWYFDVWGQGTTVTVSS
VL: EIVMTQSPATLSVSPGERATLSCSASSSVSYVHWYQQKPGQAPRLLIYDTSNLASGIPARFSGSGSGTEFTLTISSLQSEDFAVYYCHQRSSYPWTFGGGTKVEIK
notes: Humanized Clone B; constant regions (CH1-FC/CL) from the vector, expressed in 293F cells; also called humanized Clone B, Bh VH5 + Bh VL7
B7: BhVH2/BhVL7 (antibody, V domains shown)
VH: QGQLVQSGAEVKKPGASVKVSCKTSGFTFSSSYISWVRQAPGQGLEWMGWIYAGTGGTSYNQKFTGRVTMTVDTSTSTAYMELRSLRSDDTAVYYCARHEGKYWYFDVWGQGTTVTVSS
VL: EIVMTQSPATLSVSPGERATLSCSASSSVSYVHWYQQKPGQAPRLLIYDTSNLASGIPARFSGSGSGTEFTLTISSLQSEDFAVYYCHQRSSYPWTFGGGTKVEIK
notes: Humanized Clone B; constant regions (CH1-FC/CL) from the vector, expressed in 293F cells; also called humanized Clone B, Bh VH2 + Bh VL7
B8: DhVH2/DhVL2 (antibody, V domains shown)
VH: QVQLVQSGAEVKKPGASVKVSCKASGYSFTGYTMNWVKQAHGQGLEWMGLIIPYNGGISYNQKFKDRVTMTVDTSISTAYMELSRLRSDDTAVYYCASLITTAPRDSMDYWGQGTLVTVSS
VL: DIQMTQSPSSLSASVGDRVTITCRASQDISNYLNWYQQKPGKAPKLLIYYTSKLHSGVPSRFSGSGSGTDFTLTISSLQPEDIATYYCQQGDALPWTFGGGTKVEIK
notes: Humanized Clone D; constant regions from the vector, 293F cells; also called humanized Clone D, Dh VH2 + Dh VL2
B9: DhVH1/DhVL1 (antibody, V domains shown)
VH: QVQLVQSGAEVKKPGASVKVSCKASGYSFTGYTMNWVKQSHGQGLEWIGLIIPYNGGISYNQKFKDRATLTVDTSSSTAYMELSRLRSDDTAVYYCASLITTAPRDSMDYWGQGTLVTVSS
VL: DIQMTQSTSSLSASVGDRVTITCRASQDISNYLNWYQQKPGGAPKLLIYYTSKLHSGVPSRFSGSGSGTDYTLTISSLQQEDIATYYCQQGDALPWTFGGGTKVEIK
notes: Humanized Clone D; constant regions (CH1-FC/CL) from the vector, 293F cells; also called humanized Clone D, Dh VH1 + Dh VL1
B10: DhVH1/DhVL2 (antibody, V domains shown)
VH: QVQLVQSGAEVKKPGASVKVSCKASGYSFTGYTMNWVKQSHGQGLEWIGLIIPYNGGISYNQKFKDRATLTVDTSSSTAYMELSRLRSDDTAVYYCASLITTAPRDSMDYWGQGTLVTVSS
VL: DIQMTQSPSSLSASVGDRVTITCRASQDISNYLNWYQQKPGKAPKLLIYYTSKLHSGVPSRFSGSGSGTDFTLTISSLQPEDIATYYCQQGDALPWTFGGGTKVEIK
notes: Humanized Clone D; constant regions from the vector, 293F cells; also called humanized Clone D, Dh VH1 + Dh VL2
B11: DhVH3/DhVL2 (antibody, V domains shown)
VH: QVQLVQSGAEVKKPGASVKVSCKASGYSFTGYTMNWVRQAPGQGLEWMGLIIPYNGGISYNQKFKDRVTMTVDTSISTAYMELSRLRSDDTAVYYCASLITTAPRDSMDYWGQGTLVTVSS
VL: DIQMTQSPSSLSASVGDRVTITCRASQDISNYLNWYQQKPGKAPKLLIYYTSKLHSGVPSRFSGSGSGTDFTLTISSLQPEDIATYYCQQGDALPWTFGGGTKVEIK
notes: Humanized Clone D; constant regions from the vector, 293F cells; also called humanized Clone D, Dh VH3 + Dh VL2
B12: DhVH3/DhVL1 (antibody, V domains shown)
VH: QVQLVQSGAEVKKPGASVKVSCKASGYSFTGYTMNWVRQAPGQGLEWMGLIIPYNGGISYNQKFKDRVTMTVDTSISTAYMELSRLRSDDTAVYYCASLITTAPRDSMDYWGQGTLVTVSS
VL: DIQMTQSTSSLSASVGDRVTITCRASQDISNYLNWYQQKPGGAPKLLIYYTSKLHSGVPSRFSGSGSGTDYTLTISSLQQEDIATYYCQQGDALPWTFGGGTKVEIK
notes: Humanized Clone D; constant regions from the vector, 293F cells; also called humanized Clone D, Dh VH3 + Dh VL1
B13: DhVH-CDR graft/ DhVL-CDR graft (antibody, V domains shown)
VH: QVQLVQSGAEVKKPGASVKVSCKASGYSFTGYTMNWVRQAPGQGLEWMGLIIPYNGGISYNQKFKDRVTMTRDTSISTVYMELSRLRSDDTAVYYCASLITTAPRDSMDYWGQGTLVTVSS
VL: DIQMTQSPSSLSASVGDRVTITCRASQDISNYLNWYQQKPGKAPKLLIYYTSKLHSGVPSRFSGSGSGTDFTFTISSLQPEDIATYYCQQGDALPWTFGGGTKVEIK
notes: also called CDR-grafted humanized Clone D
B14: DhVH2/DhVL1 (antibody, V domains shown)
VH: QVQLVQSGAEVKKPGASVKVSCKASGYSFTGYTMNWVKQAHGQGLEWMGLIIPYNGGISYNQKFKDRVTMTVDTSISTAYMELSRLRSDDTAVYYCASLITTAPRDSMDYWGQGTLVTVSS
VL: DIQMTQSTSSLSASVGDRVTITCRASQDISNYLNWYQQKPGGAPKLLIYYTSKLHSGVPSRFSGSGSGTDYTLTISSLQQEDIATYYCQQGDALPWTFGGGTKVEIK
notes: Humanized Clone D; constant regions from the vector, 293F cells; also called humanized Clone D, Dh VH2 + Dh VL1
B15: ChVH3/ChVL3 (antibody, V domains shown)
VH: QVQLVQSGAEVKKPGASVKVSCKASGFNIKDTYMHWVRQAPGQGLEWIGRIDPANGNTKYDPKFQGRVTITTDTSANTAYMELSSLRSEDTAVYYCARGLGRWFAYWGQGTTVTVSS
VL: DIQMTQSPSSLSASVGDRVTITCQASQDVSNAVAWYQQKPGKAPKLLIYSASNLYTGVPSRFSGSGSGTDFTFTISSLQPEDIATYYCQQHDSTPLTFGQGTKLELK
notes: Humanized Clone C; constant regions (CH1-FC/CL) from the vector, expressed in 293F cells; also called humanized Clone C, Ch VH3 + Ch VL3
B16: ChVH4/ChVL3 (antibody, V domains shown)
VH: QVQLVQSGAEVKKPGASVKVSCKASGFNIKDTYMHWVRQAPGQGLEWIGRIDPANGNTKYDPKFQGRVTITTDTSASTAYLELSSLRSEDTAVYYCARGLGRWFAYWGQGTTVTVSS
VL: DIQMTQSPSSLSASVGDRVTITCQASQDVSNAVAWYQQKPGKAPKLLIYSASNLYTGVPSRFSGSGSGTDFTFTISSLQPEDIATYYCQQHDSTPLTFGQGTKLELK
notes: Humanized Clone C; constant regions (CH1-FC/CL) from the vector, expressed in 293F cells; also called humanized Clone C, Ch VH4 + Ch VL3
B17: ChVH3/ChVL1 (antibody, V domains shown)
VH: QVQLVQSGAEVKKPGASVKVSCKASGFNIKDTYMHWVRQAPGQGLEWIGRIDPANGNTKYDPKFQGRVTITTDTSANTAYMELSSLRSEDTAVYYCARGLGRWFAYWGQGTTVTVSS
VL: DIQMTQSPSSLSASVGDRVTITCKASQDVSNAVAWYQQKPGKAPKLLIYSASNRYTGVPDRFSGSGSGTDFTFTISSLQPEDIATYYCQQHDSTPLTFGQGTKLELK
notes: Humanized Clone C; constant regions (CH1-FC/CL) from the vector, expressed in 293F cells; also called humanized Clone C, Ch VH3 + Ch VL1
B18: ChVH5/ChVL1 (antibody, V domains shown)
VH: QVQLVQSGAEVKKPGASVKVSCKASGFNIKDTYMHWVRQAPGQRLEWIGRIDPANGNTKYSQKFQGRVTITRDTSASTAYMELSSLRSEDTAVYYCARGLGRWFAYWGQGTTVTVSS
VL: DIQMTQSPSSLSASVGDRVTITCKASQDVSNAVAWYQQKPGKAPKLLIYSASNRYTGVPDRFSGSGSGTDFTFTISSLQPEDIATYYCQQHDSTPLTFGQGTKLELK
notes: Humanized Clone C; constant regions (CH1-FC/CL) from the vector, expressed in 293F cells; also called humanized Clone C, Ch VH5 + Ch VL1
B19: ChVH2/ChVL2 (antibody, V domains shown)
VH: QVQLVQSGAEVKKPGASVKVSCKASGFNIKDTYMHWVRQAPGQGLEWIGRIDPANGNTKYDPKFQGRATITTDTSTNTAYLELSSLRSEDTAVYYCARGLGRWFAYWGQGTTVTVSS
VL: DIQMTQSPSSLSASVGDRVTITCKASQDVSNAVAWYQQKPGKAPKLLIYSASNRYTGVPSRFSGSGSGTDFTFTISSLQPEDIATYYCQQHDSTPLTFGQGTKLELK
notes: Humanized Clone C; constant regions (CH1-FC/CL) from the vector, expressed in 293F cells; also called humanized Clone C, Ch VH2 + Ch VL2
B20: ChVH1/ChVL1 (antibody, V domains shown)
VH: QVQLVQSGAEVKKPGASVKLSCTASGFNIKDTYMHWVKQRPGQGLEWIGRIDPANGNTKYDPKFQGKATITTDTSTNTAYLELSSLRSEDTAVYYCARGLGRWFAYWGQGTTVTVSS
VL: DIQMTQSPSSLSASVGDRVTITCKASQDVSNAVAWYQQKPGKAPKLLIYSASNRYTGVPDRFSGSGSGTDFTFTISSLQPEDIATYYCQQHDSTPLTFGQGTKLELK
notes: Humanized Clone C; constant regions (CH1-FC/CL) from the vector, expressed in 293F cells; also called humanized Clone C, Ch VH1 + Ch VL1
B21: ChVH2/ChVL3 (antibody, V domains shown)
VH: QVQLVQSGAEVKKPGASVKVSCKASGFNIKDTYMHWVRQAPGQGLEWIGRIDPANGNTKYDPKFQGRATITTDTSTNTAYLELSSLRSEDTAVYYCARGLGRWFAYWGQGTTVTVSS
VL: DIQMTQSPSSLSASVGDRVTITCQASQDVSNAVAWYQQKPGKAPKLLIYSASNLYTGVPSRFSGSGSGTDFTFTISSLQPEDIATYYCQQHDSTPLTFGQGTKLELK
notes: Humanized Clone C; constant regions (CH1-FC/CL) from the vector, expressed in 293F cells; also called humanized Clone C, Ch VH2 + Ch VL3

What follows are binders tested against T1, human PD-L1 (human, UniProt Q9NZQ7 19-238, limits assumed) (assay: Octet-96 BLI; antigen not named, taken as human PD-L1).
T1 construct: also called hPD-L1
T1 sequence (Q9NZQ7 19-238 limits assumed): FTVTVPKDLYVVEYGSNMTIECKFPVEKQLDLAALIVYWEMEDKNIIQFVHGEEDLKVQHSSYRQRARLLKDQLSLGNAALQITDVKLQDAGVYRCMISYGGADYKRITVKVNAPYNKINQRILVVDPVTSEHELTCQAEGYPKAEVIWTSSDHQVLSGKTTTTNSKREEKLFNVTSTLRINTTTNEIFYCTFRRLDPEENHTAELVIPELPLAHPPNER

Binder | Kd [nM]
B1 | 3.68
B2 | 1.13
B3 | 1.18
B4 | 0.619
B5 | 1.29
B6 | 0.4
B7 | 0.942
B8 | 11.8
B9 | 11.1
B10 | 12.4
B11 | 1.67
B12 | 9.09
B13 | 10.3
B14 | 1.27
B15 | 0.242
B16 | 0.177
B17 | 0.16
B18 | 1.17
B19 | 0.201
B20 | 0.255
B21 | 0.329

— US20230340142A1 (SUZHOU NEOLOGICS BIOSCIENCE, published 2023)
